One block for each binder: values may come before it. Where no end group is shown, it is not given here. Me3 = trimethyl-lysine (Kme3); Me2 = dimethyl-lysine (Kme2)
Legend:
LEDGF/p75 = LEDGF/p75 (UniProt O75475 1-530); test: SEC
LEDGF/p52 = LEDGF/p52 (UniProt O75475-2 1-333); test: NMR titration

B1: PogZ(1117–1410) (domain or fragment)
chain: SNAASLPLSMIVAIDEISLFLDTEVLSSDDRKENALQTVGTGEPWCDVVLAILADGTVLPTLVFYRGQMDQPANMPDSILLEAKESGYSDDEIMELWSTRVWQKHTACQRSKGMLVMDCHRTHLSEEVLAMLSASSTLPAVVPAGCSSKIQPLDVCIKRTVKNFLHKKWKEQAREMADTACDSDVLLQLVLVWLGEVLGVIGDCPELVQRSFLVASVLPGPDGNINSPTRNADMQEELIASLEEQLKLSGEHSESSTPRPRSSPEETIEPESLHQLFEGESETESFYGFEEADLDLMEI
- binding result (LEDGF/p75): binds

Binder: SAPATGGVKKPHRY [histone H3 peptide SAPATGGVKKPHRY, unmodified]
- Kd (LEDGF/p52): 6 mM

The remaining lines, values ahead:

- Kd (LEDGF/p52): 2.7 mM
Binder: SAPATGGVK(Me3)KPHRY [histone H3 peptide SAPATGGVKme3KPHRY]

- Kd (LEDGF/p52): 5.4 mM
Binder: SAPATGGVK(Me)KPHRY [histone H3 peptide SAPATGGVKme1KPHRY]

- Kd (LEDGF/p52): 2.4 mM
Binder: SAPATGGVK(Me2)KPHRY [histone H3 peptide SAPATGGVKme2KPHRY]
